Measured values published in publication PMC9482650, “Quantitative fragmentomics allow affinity mapping of interactomes” (Nature Communications, 2022).
Each block holds one binder with its values, some of them ahead of it.

Columns and labels:
Assay in all cases: holdup assay
Parameters in all cases: key: below the threshold = too weak to quantify, mostly under pKd 3.1 to 4
HTRA3, P83110 = biological target: T1, HTRA3, P83110
T1 sequence (P83110 354-453, limits assumed, looked up): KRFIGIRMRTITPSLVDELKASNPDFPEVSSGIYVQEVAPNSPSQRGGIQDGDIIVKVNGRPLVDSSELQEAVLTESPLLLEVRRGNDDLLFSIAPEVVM

MPP6, Q9NZW5 = biological target: T2, MPP6, Q9NZW5
T2 sequence (Q9NZW5 125-219, limits assumed, looked up): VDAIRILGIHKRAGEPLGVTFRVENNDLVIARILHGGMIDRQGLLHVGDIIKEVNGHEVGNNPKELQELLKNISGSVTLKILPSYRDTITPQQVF

TJP3_3, O95049 = biological target: T3, TJP3_3, O95049
T3 sequence (O95049 375-456, limits assumed, looked up): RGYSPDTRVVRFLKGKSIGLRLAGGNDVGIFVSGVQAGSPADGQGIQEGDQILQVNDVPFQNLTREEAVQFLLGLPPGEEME

NHERF3_3, Q5T2W1 = biological target: T4, NHERF3_3, Q5T2W1
T4 sequence (Q5T2W1 238-333, limits assumed, looked up): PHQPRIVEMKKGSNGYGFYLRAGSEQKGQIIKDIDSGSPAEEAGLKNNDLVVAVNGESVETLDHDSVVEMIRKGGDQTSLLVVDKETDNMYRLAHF

DFNB31_1, Q9P202 = biological target: T5, DFNB31_1, Q9P202
T5 sequence (Q9P202 135-233, limits assumed, looked up): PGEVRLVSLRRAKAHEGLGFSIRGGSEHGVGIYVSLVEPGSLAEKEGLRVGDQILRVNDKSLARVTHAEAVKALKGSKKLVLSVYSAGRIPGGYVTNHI

LNX1_1, Q8TBB1 = biological target: LNX1_1, Q8TBB1
LNX1_1, Q8TBB1, sequence (Q8TBB1 261-371): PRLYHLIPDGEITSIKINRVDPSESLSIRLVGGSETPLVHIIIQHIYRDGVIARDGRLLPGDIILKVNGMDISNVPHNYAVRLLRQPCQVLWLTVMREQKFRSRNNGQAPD

MAGI2_6, Q86UL8 = biological target: MAGI2_6, Q86UL8
MAGI2_6, Q86UL8, sequence (Q86UL8 1141-1229): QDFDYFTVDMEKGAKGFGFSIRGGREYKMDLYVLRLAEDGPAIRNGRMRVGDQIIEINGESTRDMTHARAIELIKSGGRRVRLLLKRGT

GORASP2, Q9H8Y8 = biological target: GORASP2, Q9H8Y8
RHPN1, Q8TCX5 = biological target: T6, RHPN1, Q8TCX5
T6 sequence (Q8TCX5 508-602, limits assumed, looked up): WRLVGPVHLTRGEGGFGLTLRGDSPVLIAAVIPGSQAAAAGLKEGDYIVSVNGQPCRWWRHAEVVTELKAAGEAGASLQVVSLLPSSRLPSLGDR

MPDZ_5, O75970 = biological target: T7, MPDZ_5, O75970
T7 sequence (O75970 695-796, limits assumed, looked up): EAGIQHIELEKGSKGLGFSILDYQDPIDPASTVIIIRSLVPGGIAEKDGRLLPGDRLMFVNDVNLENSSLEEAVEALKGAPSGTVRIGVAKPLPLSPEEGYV

PCLO, Q9Y6V0 = biological target: T8, PCLO, Q9Y6V0
T8 sequence (Q9Y6V0 4491-4600, limits assumed, looked up): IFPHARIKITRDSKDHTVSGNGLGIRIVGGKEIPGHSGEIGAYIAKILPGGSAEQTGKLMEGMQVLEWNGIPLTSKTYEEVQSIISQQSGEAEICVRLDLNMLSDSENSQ

APBA1_1, Q02410 = biological target: T9, APBA1_1, Q02410
T9 sequence (Q02410 651-752, limits assumed, looked up): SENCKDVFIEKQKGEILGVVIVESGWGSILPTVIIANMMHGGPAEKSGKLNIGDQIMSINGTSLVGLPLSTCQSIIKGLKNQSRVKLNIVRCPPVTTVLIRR

MAGI1_1, Q96QZ7 = biological target: MAGI1_1, Q96QZ7
MAGI1_1, Q96QZ7, sequence (Q96QZ7 1-106): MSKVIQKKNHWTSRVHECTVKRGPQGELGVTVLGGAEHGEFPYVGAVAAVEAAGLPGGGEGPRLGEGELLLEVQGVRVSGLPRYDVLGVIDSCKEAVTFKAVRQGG

ARHGAP21, Q5T5U3 = biological target: T10, ARHGAP21, Q5T5U3
T10 sequence (Q5T5U3 45-169, limits assumed, looked up): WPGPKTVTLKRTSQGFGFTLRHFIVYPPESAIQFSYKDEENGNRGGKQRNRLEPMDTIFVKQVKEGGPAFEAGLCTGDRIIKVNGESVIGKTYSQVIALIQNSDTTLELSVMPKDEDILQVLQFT

PDZRN4_1, Q6ZMN7 = biological target: PDZRN4_1, Q6ZMN7
PDZRN4_1, Q6ZMN7, sequence (Q6ZMN7 213-318): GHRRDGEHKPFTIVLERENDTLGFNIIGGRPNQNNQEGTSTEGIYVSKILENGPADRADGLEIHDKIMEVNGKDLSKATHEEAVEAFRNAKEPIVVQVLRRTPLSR

LIMK2, P53671 = biological target: LIMK2, P53671
LIMK2, P53671, sequence (P53671 143-248): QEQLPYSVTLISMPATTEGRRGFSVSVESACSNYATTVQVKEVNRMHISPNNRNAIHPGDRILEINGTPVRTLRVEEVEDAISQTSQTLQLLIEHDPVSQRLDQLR

DLG3_3, Q92796 = biological target: T11, DLG3_3, Q92796
T11 sequence (Q92796 374-475, limits assumed, looked up): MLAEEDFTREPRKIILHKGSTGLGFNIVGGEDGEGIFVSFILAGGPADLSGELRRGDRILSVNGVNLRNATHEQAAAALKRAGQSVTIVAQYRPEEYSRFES

PTPN3, P26045 = biological target: PTPN3, P26045
PTPN3, P26045, sequence (P26045 505-587): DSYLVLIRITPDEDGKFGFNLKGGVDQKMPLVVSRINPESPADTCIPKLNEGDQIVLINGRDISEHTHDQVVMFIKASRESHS

ARHGEF12, Q9NZN5-2 = biological target: ARHGEF12, Q9NZN5-2
ARHGEF12, Q9NZN5-2, sequence (Q9NZN5 other isoform, or with tags, fused parts or gaps): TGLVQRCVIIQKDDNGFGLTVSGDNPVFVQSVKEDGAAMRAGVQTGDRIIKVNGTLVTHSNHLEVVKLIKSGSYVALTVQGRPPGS

DLG1_1, Q12959 = biological target: DLG1_1, Q12959
DLG3_1, Q92796 = biological target: T12, DLG3_1, Q92796
T12 sequence (Q92796 125-227, limits assumed, looked up): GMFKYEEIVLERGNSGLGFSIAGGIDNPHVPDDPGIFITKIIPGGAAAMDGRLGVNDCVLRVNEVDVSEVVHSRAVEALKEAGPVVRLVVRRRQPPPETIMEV

LNX1_3, Q8TBB1 = biological target: LNX1_3, Q8TBB1
LNX1_3, Q8TBB1, sequence (Q8TBB1 500-596): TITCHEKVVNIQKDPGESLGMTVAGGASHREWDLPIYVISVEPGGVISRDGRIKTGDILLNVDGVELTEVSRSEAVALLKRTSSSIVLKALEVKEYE

GORASP1, Q9BQQ3 = biological target: GORASP1, Q9BQQ3
GORASP1, Q9BQQ3, sequence (Q9BQQ3 1-208): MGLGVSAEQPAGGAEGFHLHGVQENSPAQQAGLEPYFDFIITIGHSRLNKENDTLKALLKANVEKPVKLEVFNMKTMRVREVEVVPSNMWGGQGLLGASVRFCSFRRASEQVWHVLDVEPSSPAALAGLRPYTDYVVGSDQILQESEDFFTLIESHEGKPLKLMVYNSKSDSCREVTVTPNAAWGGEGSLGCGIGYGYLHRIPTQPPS

HTRA4, P83105 = biological target: T13, HTRA4, P83105
T13 sequence (P83105 378-476, limits assumed, looked up): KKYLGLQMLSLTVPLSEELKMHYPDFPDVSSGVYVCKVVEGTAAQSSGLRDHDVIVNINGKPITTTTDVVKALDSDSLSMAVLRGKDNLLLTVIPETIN

[1] = plain residues with an end cap or a label only (N-terminal biotin on a linker: ado-ado)
[2] = plain residues with an end cap or a label only (N-terminal biotin on a linker: ahx)

pKd (HTRA3, P83110; [1]): 4.17
pKd (MPP6, Q9NZW5; [1]): below the threshold
pKd (TJP3_3, O95049; [1]): 3.73
pKd (NHERF3_3, Q5T2W1; [1]): below the threshold
pKd (DFNB31_1, Q9P202; [1]): below the threshold
pKd (LNX1_1, Q8TBB1; [1]): below the threshold
pKd (MAGI2_6, Q86UL8; [1]): 3.52
pKd (GORASP2, Q9H8Y8; [1]): 3.57
pKd (RHPN1, Q8TCX5; [1]): below the threshold
pKd (MPDZ_5, O75970; [1]): below the threshold
pKd (PCLO, Q9Y6V0; [1]): below the threshold
pKd (APBA1_1, Q02410; [1]): below the threshold
pKd (MAGI1_1, Q96QZ7; [1]): below the threshold
pKd (ARHGAP21, Q5T5U3; [1]): 3.83
pKd (PDZRN4_1, Q6ZMN7; [1]): below the threshold
pKd (LIMK2, P53671; [1]): below the threshold
pKd (DLG3_3, Q92796; [1]): 3.64
pKd (PTPN3, P26045; [1]): 4.04
pKd (ARHGEF12, Q9NZN5-2; [1]): below the threshold
pKd (DLG1_1, Q12959; [1]): below the threshold
pKd (DLG3_1, Q92796; [1]): below the threshold
pKd (LNX1_3, Q8TBB1; [1]): 3.49
pKd (GORASP1, Q9BQQ3; [1]): below the threshold
pKd (HTRA4, P83105; [1]): below the threshold
Binder: GTGYDRKDYV [CLDN3, O15551]

pKd (HTRA3, P83110; [2]): below the threshold
pKd (MPP6, Q9NZW5; [2]): below the threshold
pKd (TJP3_3, O95049; [2]): below the threshold
pKd (NHERF3_3, Q5T2W1; [2]): below the threshold
pKd (DFNB31_1, Q9P202; [2]): 3.55
pKd (LNX1_1, Q8TBB1; [2]): below the threshold
pKd (MAGI2_6, Q86UL8; [2]): below the threshold
pKd (GORASP2, Q9H8Y8; [2]): below the threshold
pKd (RHPN1, Q8TCX5; [2]): 3.88
pKd (MPDZ_5, O75970; [2]): below the threshold
pKd (PCLO, Q9Y6V0; [2]): below the threshold
pKd (APBA1_1, Q02410; [2]): below the threshold
pKd (MAGI1_1, Q96QZ7; [2]): below the threshold
pKd (ARHGAP21, Q5T5U3; [2]): below the threshold
pKd (PDZRN4_1, Q6ZMN7; [2]): below the threshold
pKd (LIMK2, P53671; [2]): below the threshold
pKd (DLG3_3, Q92796; [2]): below the threshold
pKd (PTPN3, P26045; [2]): below the threshold
pKd (ARHGEF12, Q9NZN5-2; [2]): 3.76
pKd (DLG1_1, Q12959; [2]): below the threshold
pKd (DLG3_1, Q92796; [2]): below the threshold
pKd (LNX1_3, Q8TBB1; [2]): below the threshold
pKd (GORASP1, Q9BQQ3; [2]): below the threshold
pKd (HTRA4, P83105; [2]): below the threshold
Binder: APSRKLNTEI [TIAM1, Q13009]

pKd (HTRA3, P83110; [2]): below the threshold
pKd (MPP6, Q9NZW5; [2]): below the threshold
pKd (TJP3_3, O95049; [2]): below the threshold
pKd (NHERF3_3, Q5T2W1; [2]): below the threshold
pKd (DFNB31_1, Q9P202; [2]): below the threshold
pKd (LNX1_1, Q8TBB1; [2]): 3.47
pKd (MAGI2_6, Q86UL8; [2]): below the threshold
pKd (GORASP2, Q9H8Y8; [2]): below the threshold
pKd (RHPN1, Q8TCX5; [2]): 4.44
pKd (MPDZ_5, O75970; [2]): below the threshold
pKd (PCLO, Q9Y6V0; [2]): below the threshold
pKd (APBA1_1, Q02410; [2]): below the threshold
pKd (MAGI1_1, Q96QZ7; [2]): below the threshold
pKd (ARHGAP21, Q5T5U3; [2]): 3.51
pKd (PDZRN4_1, Q6ZMN7; [2]): below the threshold
pKd (LIMK2, P53671; [2]): below the threshold
pKd (DLG3_3, Q92796; [2]): below the threshold
pKd (PTPN3, P26045; [2]): below the threshold
pKd (ARHGEF12, Q9NZN5-2; [2]): 3.71
pKd (DLG1_1, Q12959; [2]): below the threshold
pKd (DLG3_1, Q92796; [2]): below the threshold
pKd (LNX1_3, Q8TBB1; [2]): below the threshold
pKd (GORASP1, Q9BQQ3; [2]): below the threshold
pKd (HTRA4, P83105; [2]): below the threshold
Binder: TESNLQTSSC [CGN, Q9P2M7]
